Assay results published in US20220259318A1 (Hoffmann-La Roche, published 2022).
Where “and” joins values, the source holds several entries; their conditions need not be identical. Equal values may be shown once. Read-outs that look alike come from different tables or passages of the source.

B1: 5F11-IgG (antibody, V domains shown)
VH: EVQLVESGGGLVQPGRSLKLSCAASGFSFSNYGMAWVRQAATKGLEWVASISTGGGNTYYRDSVKGRFIVSRDNAKNTQYLQMDSLRSEDTATYYCTRHDRGGLYWGQGVMVTVSS
VL: DIVMTQAPLSVSVTPGESASISCRSSKSLLHSNGITYVYWYFQKPGKSPQVLIYRMSNLASGVPDRFSGSGSETDFTLKISRVEAEDVGIYHCGQLLENPYTFGAGTELELK
notes: Rat-derived variable domains, tested as IgG; also called P1AE5733 (parental); 5F11_parental
B2: 5E11-IgG (antibody, V domains shown)
VH: ELQLEQSGGGLVQPGGSLTLSCAASGFTFSKYAMAWVRQAPTKGLEWVASISTGGVNTYYRDSVKARFTISRDNAKNTQYLQMDSLRSEDTATYYCATHTGDYFDYWGQGVMVTVSS
VL: DIVLTQSPALAVSPGQRATISCRASQSVSISGINLMNWYQQKPGQQPKLLIYHASILASGIPTRFSGSGSGTDFTLTIDPVQADDIATYYCQQTRESPLTFGSGTNLEIK
notes: Rat-derived variable domains, tested as IgG; also called P1AE5706 (parental); 5E11 parental
B3: 5F11(VH1c + VL1b)-C122-TCB (P1AE6624) (bispecific antibody, human IgG1, kappa, L234A L235A)
light 1: DIVMTQSPLSLPVTPGEPASISCRSSKSLLHSNGITYVYWYLQKPGKSPQVLIYRMSNLASGVPDRFSGSGSGTDFTLKISRVEAEDVGVYHCGQLLENPYTFGQGTKLEIKRTVAAPSVFIFPPSDRKLKSGTASVVCLLNNFYPREAKVQWKVDNALQSGNSQESVTEQDSKDSTYSLSSTLTLSKADYEKHKVYACEVTHQGLSSPVTKSFNRGEC
light 2: EVQLLESGGGLVQPGGSLRLSCAASGFQFSSYAMNWVRQAPGKGLEWVSRIRSKYNNYATYYADSVKGRFTISRDDSKNTLYLQMNSLRAEDTAVYYCVRHTTFPSSYVSYYGYWGQGTLVTVSSASVAAPSVFIFPPSDEQLKSGTASVVCLLNNFYPREAKVQWKVDNALQSGNSQESVTEQDSKDSTYSLSSTLTLSKADYEKHKVYACEVTHQGLSSPVTKSFNRGEC
heavy 1: QVQLVESGGGVVQPGRSLRLSCAASGFSFSNYGMAWVRQAPGKGLEWVASISTGGGNTYYADSVKGRFTISRDNSKNTLYLQMNSLRAEDTAVYYCTRHDRGGLYWGQGTMVTVSSASTKGPSVFPLAPSSKSTSGGTAALGCLVEDYFPEPVTVSWNSGALTSGVHTFPAVLQSSGLYSLSSVVTVPSSSLGTQTYICNVNHKPSNTKVDEKVEPKSCDKTHTCPPCPAPEAAGGPSVFLFPPKPKDTLMISRTPEVTCVVVDVSHEDPEVKFNWYVDGVEVHNAKTKPREEQYNSTYRVVSVLTVLHQDWLNGKEYKCKVSNKALGAPIEKTISKAKGQPREPQVCTLPPSRDELTKNQVSLSCAVKGFYPSDIAVEWESNGQPENNYKTTPPVLDSDGSFFLVSKLTVDKSRWQQGNVFSCSVMHEALHNHYTQKSLSLSPGK
heavy 2: not shown
notes: 2+1 TCB: LC1 (anti-GPRC5D), LC2 (anti-CD3 crossed), HC1 Fc hole, HC2 Fc knob
B4: 10B10 IgG (antibody, V domains shown)
VH: EVQLVESGGGLVQPGRSMKLSCAASGFTFTNFYMAWVRQAPTKALEWVASINTGGGYTYYRDSVKGRFTVSRDNTRSTLYLQMDSLRSEETATYYCARHLTYYGRYYYFDYWGQGVMVTVSS
VL: DIQLTQSPHSLSASLGETVSIECLASEGISNYLAWFHQKPGKSPQLLIYYASSLQDGVPSRFSGSGSGTQYSLKISNMQPEDEGVYYCQQGYKYPLTFGSGTKLEIK
B5: 07A04 IgG (antibody, V domains shown)
VH: QVTLKESGPGILQPSHTLSLTCSFSGFSLSTYGMGVNWIRQPSGKGLEWLASIWWNGNTYNNPSLKSRLTVSKDTSNNQAFLKVTSVDTADTATYYCVHTRGIIRGRGLFFDYWGQGVMVTVSS
VL: DVQMTQSPYNLAASPGESVSINCKASKSISKYLAWYQQKPGKANKLLIYDGSTLQSGIPSRFSGSGSGTDFTLTIRSLEPEDFGLYYCQQHNEYPLTFGSGTKLEIKR
notes: the format as tested is not certain

Experiments:
human GPRC5A = molecular target: T1, human GPRC5A (human, UniProt Q8NFJ5 1-357); test: cell ELISA on stably transfected CHO cells
T1 construct: whole, on cells; also called hu GPCR5A; GPRCSA
T1 sequence (Q8NFJ5 whole entry): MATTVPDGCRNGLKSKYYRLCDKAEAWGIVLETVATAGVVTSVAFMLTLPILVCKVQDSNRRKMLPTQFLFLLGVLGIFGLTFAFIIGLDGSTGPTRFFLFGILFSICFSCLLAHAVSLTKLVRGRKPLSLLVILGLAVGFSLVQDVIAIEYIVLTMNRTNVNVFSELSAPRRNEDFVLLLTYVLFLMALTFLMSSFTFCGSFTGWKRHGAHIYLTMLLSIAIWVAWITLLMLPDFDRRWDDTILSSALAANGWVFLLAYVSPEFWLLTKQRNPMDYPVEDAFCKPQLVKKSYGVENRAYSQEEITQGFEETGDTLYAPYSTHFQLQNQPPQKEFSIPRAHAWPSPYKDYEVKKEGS
Protocol: (§1) Stable transfected CHO clones expressing either human GPRCSD or cynomolgus GPRCSD or murine GPRCSD or human GPRCSA were used to analyze the binding of potential lead candidate antibodies as IgGs. In detail, 10⁴ cells (viability≥98%) were seeded into 384 well-microtiter plates (BD Poly D-Lysin, #356662, volume: 25 μl/well) using fresh culture medium. After overnight incubation at 37° C., 25 μl/well dilutions of antibodies were added (15×1:3 dilutions in 1×PBS, assay conc. starts at 30 μg/ml) to the cells for 2 hours at 4° C. After one washing step using 90 μl/well PBST (10×PBS, Roche, #11666789001+0.1% Tween 20), cells were subsequently fixed by the addition of 50 μl/well 0.05% glutaraldehyde (Sigma Cat. No: G5882 in 1×PBS) for 10 min at room temperature (RT). After three additional washing steps using 90 μl/well PBST, secondary antibodies were added for detection: for human antibodies goat anti-human Ig a chain antibody HRP conjugate (Millipore #AP502P) diluted 1:2000 in blocking buffer (1×PBS (Roche #11666789001)+2% BSA (Bovine Serum Albumin Fraction V, fatty acid free, Roche, #10735086001)+0.05% Tween 20) was used (25 μl/well). […] After incubation for 1 h at RT and three additional washing steps using 90 μl/well PBST, 25 μl/well TMB substrate was added (Roche order no. 11835033001) for 10 min and color development to final ODs was determined by measurement at 370 nm/492 nm.
(§2) Cynomolgus crossreactivity was also detected for all other antibodies but at lower levels compared to 10B10 and 07A04 (FIG. 9). No significant binding to CHO cells expressing murine GPRC5D and no binding to CHO cells expressing the human version of GPRC5A was detected (FIG. 9).

human GPRC5D [1] = molecular target: T2, human GPRC5D (human, UniProt Q9NZD1 1-345); test: cell-based or functional assay
T2 sequence (Q9NZD1 whole entry): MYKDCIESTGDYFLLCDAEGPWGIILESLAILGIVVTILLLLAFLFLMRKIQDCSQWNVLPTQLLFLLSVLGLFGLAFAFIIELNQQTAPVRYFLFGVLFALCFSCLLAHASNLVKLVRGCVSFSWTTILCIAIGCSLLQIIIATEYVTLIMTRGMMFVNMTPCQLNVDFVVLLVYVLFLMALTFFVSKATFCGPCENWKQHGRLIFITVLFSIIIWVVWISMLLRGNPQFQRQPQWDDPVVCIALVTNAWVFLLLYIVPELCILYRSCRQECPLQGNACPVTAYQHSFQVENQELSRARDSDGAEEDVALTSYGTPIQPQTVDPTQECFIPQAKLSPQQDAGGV

human GPRC5D [2] = molecular target: T2, human GPRC5D; test: cell-based or functional assay; remark: listed apart in the source
human GPRC5D [3] = molecular target: T2, human GPRC5D; test: cell ELISA, CHO cells stably expressing human GPRC5D
Protocol: as §1

human GPRC5D [4] = molecular target: T2, human GPRC5D; test: cell ELISA, CHO hu GPRC5D (EC/IC50 rel)
In short: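 Stably transfected CHO cells seeded overnight, then incubated 2 h at 4° C with antibody IgGs in 15-point 1:3 dilutions from 30 μg/ml. Cells fixed with 0.05% glutaraldehyde; binding detected with HRP anti-human Ig and TMB, absorbance at 370/492 nm.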

human GPRC5D [5] = molecular target: T2, human GPRC5D; test: cell-based or functional assay; remark: listed apart in the source
human GPRC5D [6] = molecular target: T2, human GPRC5D; test: flow cytometry on NCI-H929 cells; paragraph 550 says these values were falsely calculated by a factor of 10 (too low)
Protocol: To measure the binding to GPRC5D, we performed a flow cytometry-based binding assay on reported multiple myeloma cell lines (Lombardi et al., Molecular characterization of human multiple myeloma cell lines by integrative genomics: insights into the biology of the disease; Genes Chromosomes Cancer. 2007 March; 46(3):226-38). The cell line NCI-H929 (ATCC® CRL-9068) was cultured in RPMI 1640 with Glutamax medium (Gibco) supplemented with 10% FBS, 1× Penicillin/Streptomycin (Gibco), 1× Sodium Pyruvate (Gibco) and 50 μM beta-Mercaptoethanol (Gibco). Jurkat-NFAT reporter cells (a CD3-expressing human acute lymphatic leukemia reporter cell line with a NFAT promoter, GloResponse Jurkat NFAT-RE-luc2P, Promega #CS176501) were cultured in RPMI 1640, containing 2 g/l Glucose, 2 g/l NaHCO₃, 10% FCS, 25 mM HEPES, 2 mM L-Glutamine, 1×NEAA, 1× Sodium-pyruvate and 200 μg/ml Hygromycin B.
Flow cytometry acquisition was performed on a custom-designed BD Biosciences Fortessa and analyzed using BD Diva. EC50 values were calculated, using GraphPad Prism software.

human GPRC5D [7] = molecular target: T2, human GPRC5D; test: cell-based or functional assay; remark: listed apart in the source
human GPRC5D [8] = molecular target: T2, human GPRC5D; test: cell-based or functional assay; remark: listed apart in the source
cynomolgus GPRC5D = molecular target: T3, cynomolgus GPRC5D (cynomolgus); test: cell ELISA, CHO cells stably expressing cynomolgus GPRC5D
T3 construct: whole, on cells; also called cyno GPRC5D; CHO cy GPCR5D
Protocol: as §1

murine GPRC5D = molecular target: T4, murine GPRC5D (murine, UniProt Q9JIL6 1-344); test: cell ELISA on stably transfected CHO cells
T4 construct: whole, on cells
T4 sequence (looked up): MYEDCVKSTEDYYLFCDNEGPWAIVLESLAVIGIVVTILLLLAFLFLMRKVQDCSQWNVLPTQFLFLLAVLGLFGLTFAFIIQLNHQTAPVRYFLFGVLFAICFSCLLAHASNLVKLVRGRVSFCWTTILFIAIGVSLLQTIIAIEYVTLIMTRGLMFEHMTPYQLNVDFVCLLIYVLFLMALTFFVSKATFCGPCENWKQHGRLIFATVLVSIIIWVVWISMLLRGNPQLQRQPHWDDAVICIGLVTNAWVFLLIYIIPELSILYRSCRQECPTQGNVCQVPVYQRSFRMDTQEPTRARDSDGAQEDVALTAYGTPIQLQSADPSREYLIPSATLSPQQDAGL
Protocol: as §1, §2

Binder	binding result (human GPRC5A)	EC50 values of CAR-J activation (human GPRC5D [1]) [ng/mL]	CAR-J2 EC50 [ng/mL] (PGLALA-CAR-J activation, L363 target cells) (human GPRC5D [2])	EC50 (human GPRC5D [3])	EC50 (human GPRC5D [4])	CAR-J2 EC50 [ng/mL] (PGLALA-CAR-J activation, L363 target cells) (human GPRC5D [5])	EC50 (human GPRC5D [6]) [nM]	EC50 (pM), activation of autologous T-cells (CD69 on CD8 T cells) with a primary MM sample (human GPRC5D [7]) [pM]	AUC, activation of Jurkat-NFAT reporter cells in presence of RPMI-8226 cells (human GPRC5D [8])	EC50 (pM), activation of Jurkat-NFAT reporter cells in presence of RPMI-8226 cells (human GPRC5D [8]) [pM]	EC50 (cynomolgus GPRC5D)	binding result (murine GPRC5D)
B1	no binding (tested: assay conc. starts at 30 µg/ml)	2.65	2.65	0.0217 µg/mL and 0.144 nM	0.0058 µg/mL and 0.04 nM	–	–	–	–	–	–	–
B2	no binding (tested: assay conc. starts at 30 µg/ml)	3.9	–	0.0296 µg/mL and 0.198 nM	0.0104 µg/mL and 0.07 nM	3.9	–	–	–	–	–	–
B3	–	–	–	–	–	–	0.1	1.06	881000	4.5	–	–
B4	no binding (tested: assay conc. starts at 30 µg/ml)	–	–	0.0163 µg/mL and 0.109 nM	–	–	–	–	–	–	0.012 µg/mL and 0.08 nM	no binding (tested: assay conc. starts at 30 µg/ml)
B5	no binding (tested: assay conc. starts at 30 µg/ml)	–	–	0.0243 µg/mL and 0.162 nM	–	–	–	–	–	–	0.115 µg/mL and 0.764 nM	no binding (tested: assay conc. starts at 30 µg/ml)
